Measured values reported in patent publication US20190352359A1 (IMMATICS BIOTECHNOLOGIES, published 2019).

Each binder was assayed against T1, HLA-A*24 (assay: UV peptide-exchange ELISA (anti-b2m); yield grade ++ = >20%).
T1 construct: Monomers captured on streptavidin plates; also called peptide-receptive MHC molecules; MHC complexes
Text: Candidate peptides for T cell based therapies according to the present invention were further tested for their MHC binding capacity (affinity). The individual peptide-MHC complexes were produced by UV-ligand exchange, where a UV-sensitive peptide is cleaved upon UV-irradiation, and exchanged with the peptide of interest as analyzed. Only peptide candidates that can effectively bind and stabilize the peptide-receptive MHC molecules prevent dissociation of the MHC complexes. To determine the yield of the exchange reaction, an ELISA was performed based on the detection of the light chain (p2m) of stabilized MHC complexes. The assay was performed as generally described in Rodenko et al. (Rodenko et al., 2006)
96 well MAXISorp plates (NUNC) were coated over night with 2 ug/ml streptavidin in PBS at room temperature, washed 4× and blocked for 1 h at 37° C. in 2% BSA containing blocking buffer. Refolded HLA-A*02:01/MLA-001 monomers served as standards, covering the range of 15-500 ng/ml. Peptide-MHC monomers of the UV-exchange reaction were diluted 100-fold in blocking buffer. Samples were incubated for 1 h at 37° C., washed four times, incubated with 2 ug/ml HRP conjugated anti-β2m for 1h at 37° C., washed again and detected with TMB solution that is stopped with […]. Absorption was measured at 450 nm. Candidate peptides that show a high exchange yield (preferably higher than 50%, most preferred higher than 75%) are generally preferred for a generation and production of antibodies or fragments thereof, and/or T cell receptors or fragments thereof, as they show sufficient avidity to the MHC molecules and prevent dissociation of the MHC complexes.

Peptide exchange yield, 20 to 50%:
RQAYSVYAF (also called RQAYSVYAF) [SLC45A3-005]
LYQQSDTWSL (also called LYQQSDTWSL) [KIAA140-001]
VTMYLPLLL (also called VTMYLPLLL) [GPR143-001]
THAGVRLYF (also called THAGVRLYF) [NUP155-012]
IWDALERTF (also called IWDALERTF) [ABCC11-005]
MFQFEHIKW (also called MFQFEHIKW) [FBXW10-001]
KTYLPTFETTI (also called KTYLPTFETTI) [ENP-002]
TQLPAPLRI (also called TQLPAPLRI) [GPR45-001]
INGDLVFSF (also called INGDLVFSF) [CAPN6-002]
WQNVTPLTF (also called WQNVTPLTF) [MMP16-002]
ASYQQSTSSFF (also called ASYQQSTSSFF) [FAM82A1-001]
MLYFAPDLIL (also called MLYFAPDLIL) [PGR-004]
YLGKNWSF (also called YLGKNWSF) [SPNS3-006]
MGKGSISFLF (also called MGKGSISFLF) [PCSK1-001]
YTRLVLQF (also called YTRLVLQF) [GABRP-008]
VHSYLGSPF (also called VHSYLGSPF) [MPL-001]
KQPANFIVL (also called KQPANFIVL) [LOC1001246-001]
YGQSKPWTF (also called YGQSKPWTF) [PAX3-001]
LKSPRLFTF (also called LKSPRLFTF) [BTBD16-001]
KYSVAFYSLD (also called KYSVAFYSLD) [LAMA1-008]
AVLRHLETF (also called AVLRHLETF) [CDK6-006]
FRSWAVQTF (also called FRSWAVQTF) [NOS2-002]
YAYATVLTF (also called YAYATVLTF) [ABCC4-002]
VYDTMIEKFA (also called VYDTMIEKFA) [PTP-044]
CAMPVAMEF (also called CAMPVAMEF) [KBTBD8-003]
FSFSTSMNEF (also called FSFSTSMNEF) [CAPN6-001]
RHYHSIEVF (also called RHYHSIEVF) [LOXL4-004]
KMLPEASLLI (also called KMLPEASLLI) [NLRP4-004]
YLPNPSLNAF (also called YLPNPSLNAF) [CYP1A1-003]
EVVHTVFLF (also called EVVHTVFLF) [HMCN1-007]
FFLFIPFF (also called FFLFIPFF) [ADAM2-001]
YQGSLEVLF (also called YQGSLEVLF) [MROH2A-006]
KVFGSFLTL (also called KVFGSFLTL) [AGTR2-001]
TIYSLEMKMSF (also called TIYSLEMKMSF) [GLB1L3-001]
KMFPKDFRF (also called KMFPKDFRF) [TTLL6-001]
TDLVQFLLF (also called TDLVQFLLF) [MAGEA10-003]
ALFPMGPLTF (also called ALFPMGPLTF) [LILRA4-003]
VYPSESTVM (also called VYPSESTVM) [PTP-045]
YTCSRAVSLF (also called YTCSRAVSLF) [OTOG-001]
EFINGWYVL (also called EFINGWYVL) [MCOLN2-002]
VYLRIGGF (also called VYLRIGGF) [WNT7A-002]
LFALPDFIF (also called LFALPDFIF) [CXCR3-002]
QFSHVPLNNF (also called QFSHVPLNNF) [ALX1-001]
AYAIPSASLSW (also called AYAIPSASLSW) [HMCN1-005]
RTLNEIYHW (also called RTLNEIYHW) [FOXP3-001]
TQMDVKLVF (also called TQMDVKLVF) [GEN-003]
HQYGGAYNRV (also called HQYGGAYNRV) [DLX5-002]
KASKITFHW (also called KASKITFHW) [PTP-038]
VGRSPVFLF (also called VGRSPVFLF) [COL11A1-006]
RALLPSPLF (also called RALLPSPLF) [SPATA31D1-001]
TYESVVTGFF (also called TYESVVTGFF) [HAS3-004]
RALTETIMF (also called RALTETIMF) [ALP-011]
SQHFNLATF (also called SQHFNLATF) [DNMT3B-003]
RSWENIPVTF (also called RSWENIPVTF) [C18orf54-001]
YSLEHLTQF (also called YSLEHLTQF) [ZCCHC16-001]
TQIITFESF (also called TQIITFESF) [CSF2-001]
FSSTLVSLF (also called FSSTLVSLF) [MAGEC1-003]
AAFPGAFSF (also called AAFPGAFSF) [CRB2-002]
YLCMLYALF (also called YLCMLYALF) [KCNK18-001]
RAMCAMMSF (also called RAMCAMMSF) [TGM4-002]
YQRPDLLLF (also called YQRPDLLLF) [GEN-004]
